Source: patent US20060223158

Molecular target: T1, purified DARPP-32
T1 sequence (Q9UD71 1-204, species assumed, looked up): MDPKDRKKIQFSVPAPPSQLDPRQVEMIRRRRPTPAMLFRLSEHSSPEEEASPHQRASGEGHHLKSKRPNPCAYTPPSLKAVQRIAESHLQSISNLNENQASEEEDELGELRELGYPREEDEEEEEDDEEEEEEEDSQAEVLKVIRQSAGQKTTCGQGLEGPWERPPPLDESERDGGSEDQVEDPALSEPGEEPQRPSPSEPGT

B1: Myc-tagged MM2-CK1ε (S323A/T325A/T334A/T337A/S368A/S405A/T407A/S408A), expressed in N2a cells from pCS-Myc-MM2-CK1ε (protein)
chain: MELRVGNKYRLGRKIGSGSFGDIYLGANIASGEEVAIKLECVKTKHPQLHIESKFYKMMQGGVGIPSIKWCGAEGDYNVMVMELLGPSLEDLFNFCSRKFSLKTVLLLADQMISRIEYIHSKNFIHRDVKPDNFLMGLGKKGNLVYIIDFGLAKKYRDARTHQHIPYRENKNLTGTARYASINTHLGIEQSRRDDLESLGYVLMYFNLGSLPWQGLKAATKRQKYERISEKKMSTPIEVLCKGYPSEFSTYLNFCRSLRFDDKPDYSYLRQLFRNLFHRQGFSYDYVFDWNMLKFGAARNPEDVDRERREHEREERMGQLRGAAARALPPGPPAGAAANRLRSAAEPVASTPASRIQPAGNTSPRAIARVDRERKVSMRLHRGAPANVSSSDLTGRQEVSRIPAAQAAVPFDHLGK
kinase activity of the immunoprecipitated enzyme with DARPP-32 as substrate, against HA-CK1ε: approximately 2-fold more active than HA-CK1ε in the absence of DHPG
